Drawing on article PMC3858360, this text covers Kd for one substance.

pKd: −log10 of the molar value.

This assay deals with human Myo5a globular domain, Myo5a (1467–1855) (human) (UniProt Q9Y4I1). As to the kind of experiment: SPR; Biacore 3000, 25°C; Myo5a GD covalently immobilised on a CM5 chip (50–100 RU); steady-state binding with a multi-injection protocol, HMM 0–413 nM; 20 mM MOPS-KOH pH 7.0, 0.1 M NaCl, 2 mM MgCl2, 0.5 mM EGTA, 10 µM Calmodulin, 1 mM TCEP.
Sequence of UniProt Q9Y4I1 (Q9Y4I1 1467-1855): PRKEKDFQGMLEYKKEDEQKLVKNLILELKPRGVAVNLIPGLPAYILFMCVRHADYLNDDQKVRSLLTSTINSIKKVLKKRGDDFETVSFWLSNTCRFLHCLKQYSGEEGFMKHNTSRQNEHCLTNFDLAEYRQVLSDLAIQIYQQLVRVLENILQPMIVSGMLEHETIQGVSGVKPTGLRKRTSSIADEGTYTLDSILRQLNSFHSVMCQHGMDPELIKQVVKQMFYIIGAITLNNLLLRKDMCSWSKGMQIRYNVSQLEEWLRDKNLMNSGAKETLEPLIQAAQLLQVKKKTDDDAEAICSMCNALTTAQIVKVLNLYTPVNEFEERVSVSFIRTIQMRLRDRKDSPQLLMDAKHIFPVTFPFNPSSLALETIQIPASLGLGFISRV

Substance “murine Myo5a HMM complex: Myo5a (1–1105) C-terminally fused to GCN4-Flag, coexpressed with essential light chains and calmodulins (from UniProt Q99104 1-1105; P0DP26 1-149)” showed a pKd of 7.52.
